Test results as given in patent US20160136234A1.

What was measured:
Experiment in all cases: cell-based or functional assay
Abl (M351T) (h) (human) = Abl (M351T) (h) (human) (UniProt P00519)
BTK(R28H) (h) (human) = BTK(R28H) (h) (human) (UniProt Q06187)
CDK2/cyclinA (h) (human) = CDK2/cyclinA (h) (human) (UniProt P24941)
CHK1 (h) (human) = target: T1, CHK1 (h) (human) (UniProt O14757)
T1 sequence (looked up): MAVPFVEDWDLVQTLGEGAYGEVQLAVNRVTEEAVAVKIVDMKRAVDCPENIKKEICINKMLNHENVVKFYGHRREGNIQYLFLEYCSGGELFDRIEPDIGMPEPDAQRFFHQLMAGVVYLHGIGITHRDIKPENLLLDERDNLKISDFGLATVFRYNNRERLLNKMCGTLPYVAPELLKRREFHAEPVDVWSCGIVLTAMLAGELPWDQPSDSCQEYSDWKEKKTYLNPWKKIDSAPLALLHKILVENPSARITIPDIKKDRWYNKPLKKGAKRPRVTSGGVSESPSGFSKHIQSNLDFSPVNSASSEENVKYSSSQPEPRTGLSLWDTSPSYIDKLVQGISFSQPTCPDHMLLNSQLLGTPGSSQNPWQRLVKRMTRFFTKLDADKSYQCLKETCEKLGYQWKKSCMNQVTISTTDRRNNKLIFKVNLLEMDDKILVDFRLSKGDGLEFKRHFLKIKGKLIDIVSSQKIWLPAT

EphA2 (h) (human) = EphA2 (h) (human) (UniProt P29317)
EphA2 (h) (human), sequence (P29317 559-976 limits assumed): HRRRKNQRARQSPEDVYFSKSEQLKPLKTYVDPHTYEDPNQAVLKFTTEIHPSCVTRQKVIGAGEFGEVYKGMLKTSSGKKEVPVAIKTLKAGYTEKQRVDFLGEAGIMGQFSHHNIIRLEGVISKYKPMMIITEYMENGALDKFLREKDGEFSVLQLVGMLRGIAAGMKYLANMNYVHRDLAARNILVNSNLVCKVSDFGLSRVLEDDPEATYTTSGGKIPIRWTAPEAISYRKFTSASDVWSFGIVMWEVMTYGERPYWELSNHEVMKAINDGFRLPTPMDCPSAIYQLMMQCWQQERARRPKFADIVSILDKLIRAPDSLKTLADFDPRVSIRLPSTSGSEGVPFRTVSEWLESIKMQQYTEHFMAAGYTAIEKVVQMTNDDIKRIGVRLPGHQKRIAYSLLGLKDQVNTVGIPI

EphB2 (h) (human) = EphB2 (h) (human) (UniProt P29323)
EphB2 (h) (human), sequence (P29323 565-986 limits assumed): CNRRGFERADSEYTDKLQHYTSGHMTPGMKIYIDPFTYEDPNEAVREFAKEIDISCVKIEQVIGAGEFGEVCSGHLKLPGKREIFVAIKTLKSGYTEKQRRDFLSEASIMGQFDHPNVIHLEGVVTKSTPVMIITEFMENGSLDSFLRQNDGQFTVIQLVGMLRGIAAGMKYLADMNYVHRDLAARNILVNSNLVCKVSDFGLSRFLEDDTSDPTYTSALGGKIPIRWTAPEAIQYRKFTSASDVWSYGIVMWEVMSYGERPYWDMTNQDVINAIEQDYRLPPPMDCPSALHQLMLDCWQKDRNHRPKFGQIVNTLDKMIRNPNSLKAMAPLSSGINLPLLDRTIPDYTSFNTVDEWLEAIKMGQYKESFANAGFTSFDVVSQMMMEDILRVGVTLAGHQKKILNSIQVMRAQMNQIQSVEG

FGFR4 (h) (human) = FGFR4 (h) (human) (UniProt P22455)
FGFR4 (h) (human), sequence (P22455 460-802 limits assumed): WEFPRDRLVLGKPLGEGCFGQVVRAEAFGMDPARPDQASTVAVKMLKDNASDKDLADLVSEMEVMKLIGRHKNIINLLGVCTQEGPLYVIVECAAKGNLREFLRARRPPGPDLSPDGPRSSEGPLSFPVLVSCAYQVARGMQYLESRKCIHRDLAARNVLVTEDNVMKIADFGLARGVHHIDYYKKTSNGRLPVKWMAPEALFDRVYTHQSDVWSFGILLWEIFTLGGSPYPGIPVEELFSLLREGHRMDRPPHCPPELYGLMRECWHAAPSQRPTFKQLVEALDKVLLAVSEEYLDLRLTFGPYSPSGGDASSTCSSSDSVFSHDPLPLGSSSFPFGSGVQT

Fer (h) (human) = Fer (h) (human) (UniProt P16591)
Fgr (h) (human) = Fgr (h) (human) (UniProt P09769)
[1] = target: IR (h), activated (human) (UniProt P06213)
IR (h), activated (human), sequence (P06213 1005-1310 limits assumed): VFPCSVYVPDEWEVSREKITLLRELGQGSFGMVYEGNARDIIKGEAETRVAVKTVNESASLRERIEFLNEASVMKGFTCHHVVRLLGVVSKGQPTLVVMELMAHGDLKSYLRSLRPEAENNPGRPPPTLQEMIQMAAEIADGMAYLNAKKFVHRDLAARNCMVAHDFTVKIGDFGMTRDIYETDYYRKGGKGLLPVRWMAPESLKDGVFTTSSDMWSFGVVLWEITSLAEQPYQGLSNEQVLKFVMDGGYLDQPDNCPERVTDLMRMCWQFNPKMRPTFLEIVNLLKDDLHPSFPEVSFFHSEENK

[2] = target: Lck (h) activated (human) (UniProt P06239)
MAPK2 (h) (human) = MAPK2 (h) (human) (UniProt P28482)
MAPK2 (h) (human), sequence (P28482 whole entry): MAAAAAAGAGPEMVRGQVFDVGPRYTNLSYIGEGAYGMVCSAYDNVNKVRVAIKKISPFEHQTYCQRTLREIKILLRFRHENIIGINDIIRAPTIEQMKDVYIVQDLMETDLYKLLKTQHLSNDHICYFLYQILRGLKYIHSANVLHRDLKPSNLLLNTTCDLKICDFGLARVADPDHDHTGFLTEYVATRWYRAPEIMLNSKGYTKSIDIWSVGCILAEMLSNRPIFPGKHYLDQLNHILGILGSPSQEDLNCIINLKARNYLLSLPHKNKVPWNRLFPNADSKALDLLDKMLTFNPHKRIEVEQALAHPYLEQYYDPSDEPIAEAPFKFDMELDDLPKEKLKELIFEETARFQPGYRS

MST3 (h) (human) = MST3 (h) (human) (UniProt Q9Y6E0)
Met(D1246N) (h) (human) = Met(D1246N) (h) (human) (UniProt P08581)
NEK11 (h) (human) = target: T2, NEK11 (h) (human) (UniProt Q8NG66)
T2 sequence (looked up): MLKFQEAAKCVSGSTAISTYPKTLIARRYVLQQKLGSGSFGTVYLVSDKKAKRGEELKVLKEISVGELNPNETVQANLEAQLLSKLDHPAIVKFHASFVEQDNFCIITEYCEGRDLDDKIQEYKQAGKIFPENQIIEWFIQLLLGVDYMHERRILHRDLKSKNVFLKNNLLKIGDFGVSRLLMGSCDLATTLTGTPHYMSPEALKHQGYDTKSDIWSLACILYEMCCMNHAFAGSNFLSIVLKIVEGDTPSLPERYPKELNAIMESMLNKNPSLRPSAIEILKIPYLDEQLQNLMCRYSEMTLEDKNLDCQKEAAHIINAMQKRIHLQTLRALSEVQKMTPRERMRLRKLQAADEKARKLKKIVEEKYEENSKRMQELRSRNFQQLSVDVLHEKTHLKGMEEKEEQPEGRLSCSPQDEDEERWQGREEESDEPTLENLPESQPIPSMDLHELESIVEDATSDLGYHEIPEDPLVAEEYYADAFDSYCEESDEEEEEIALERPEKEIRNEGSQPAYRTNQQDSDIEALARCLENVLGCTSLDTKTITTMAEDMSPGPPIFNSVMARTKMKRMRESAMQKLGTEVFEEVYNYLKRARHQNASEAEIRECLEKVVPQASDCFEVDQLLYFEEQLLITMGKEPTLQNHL

[3] = target: PDGFRα (V561D) (h) (human) (UniProt P16234)
PDGFRα (V561D) (h) (human), sequence (P16234 550-1089 V561D limits assumed): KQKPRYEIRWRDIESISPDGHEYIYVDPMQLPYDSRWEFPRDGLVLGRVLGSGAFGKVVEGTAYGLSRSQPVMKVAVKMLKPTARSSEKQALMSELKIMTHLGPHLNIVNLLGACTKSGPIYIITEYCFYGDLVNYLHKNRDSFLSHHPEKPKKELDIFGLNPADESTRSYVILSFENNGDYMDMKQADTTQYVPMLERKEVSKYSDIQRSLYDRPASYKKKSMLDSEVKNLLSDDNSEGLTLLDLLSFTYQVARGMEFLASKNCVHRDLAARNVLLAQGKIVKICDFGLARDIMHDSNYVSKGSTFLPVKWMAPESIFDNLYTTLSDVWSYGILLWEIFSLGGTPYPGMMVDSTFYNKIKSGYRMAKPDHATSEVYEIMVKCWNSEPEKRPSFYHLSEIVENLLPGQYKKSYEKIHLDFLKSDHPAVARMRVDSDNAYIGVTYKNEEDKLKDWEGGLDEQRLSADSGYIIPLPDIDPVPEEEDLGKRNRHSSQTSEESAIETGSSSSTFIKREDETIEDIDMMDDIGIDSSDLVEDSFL

PKCα (h) (human) = PKCα (h) (human) (UniProt P17252)
PKCβII (h) (human) = PKCβII (h) (human) (UniProt P05771)
PKCτ (h) (human) = target: PKCτ (h) (human)
ROCK-I (h) (human) = ROCK-I (h) (human) (UniProt Q13464)
Rsk1 (h) (human) = Rsk1 (h) (human) (UniProt Q15418)
Rsk1 (h) (human), sequence (Q15418 whole entry): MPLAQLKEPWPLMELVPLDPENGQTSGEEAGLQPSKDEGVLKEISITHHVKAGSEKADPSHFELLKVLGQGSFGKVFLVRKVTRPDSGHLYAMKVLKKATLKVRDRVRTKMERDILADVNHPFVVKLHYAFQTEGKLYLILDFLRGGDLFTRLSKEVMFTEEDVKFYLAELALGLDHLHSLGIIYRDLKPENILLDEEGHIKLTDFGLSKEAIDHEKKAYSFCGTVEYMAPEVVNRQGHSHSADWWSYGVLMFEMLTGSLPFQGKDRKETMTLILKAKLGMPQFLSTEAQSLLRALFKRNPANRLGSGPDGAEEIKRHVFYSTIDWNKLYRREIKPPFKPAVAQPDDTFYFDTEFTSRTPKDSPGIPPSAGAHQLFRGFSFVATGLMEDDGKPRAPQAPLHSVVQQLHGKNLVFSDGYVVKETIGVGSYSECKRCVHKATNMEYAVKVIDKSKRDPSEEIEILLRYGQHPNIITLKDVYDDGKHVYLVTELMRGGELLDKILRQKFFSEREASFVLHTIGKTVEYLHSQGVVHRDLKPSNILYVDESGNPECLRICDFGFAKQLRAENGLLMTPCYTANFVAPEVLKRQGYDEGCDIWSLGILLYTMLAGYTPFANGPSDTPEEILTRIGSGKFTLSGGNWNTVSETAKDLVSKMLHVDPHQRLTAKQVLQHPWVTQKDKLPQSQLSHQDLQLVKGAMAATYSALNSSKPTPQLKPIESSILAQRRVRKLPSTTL

SAPK2a (h) (human) = SAPK2a (h) (human) (UniProt Q16539)
SAPK2a (h) (human), sequence (Q16539 whole entry): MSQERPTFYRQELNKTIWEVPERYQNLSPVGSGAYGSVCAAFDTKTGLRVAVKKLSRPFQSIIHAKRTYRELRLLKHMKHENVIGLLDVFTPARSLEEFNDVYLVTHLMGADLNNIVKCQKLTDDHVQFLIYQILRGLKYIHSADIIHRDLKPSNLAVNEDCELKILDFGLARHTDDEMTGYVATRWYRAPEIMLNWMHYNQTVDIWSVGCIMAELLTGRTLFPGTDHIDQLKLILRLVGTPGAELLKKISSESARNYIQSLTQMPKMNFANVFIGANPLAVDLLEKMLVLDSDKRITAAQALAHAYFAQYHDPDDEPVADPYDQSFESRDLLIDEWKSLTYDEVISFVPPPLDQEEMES

SGK3 (h) (human) = target: T3, SGK3 (h) (human) (UniProt Q96BR1)
T3 sequence (looked up): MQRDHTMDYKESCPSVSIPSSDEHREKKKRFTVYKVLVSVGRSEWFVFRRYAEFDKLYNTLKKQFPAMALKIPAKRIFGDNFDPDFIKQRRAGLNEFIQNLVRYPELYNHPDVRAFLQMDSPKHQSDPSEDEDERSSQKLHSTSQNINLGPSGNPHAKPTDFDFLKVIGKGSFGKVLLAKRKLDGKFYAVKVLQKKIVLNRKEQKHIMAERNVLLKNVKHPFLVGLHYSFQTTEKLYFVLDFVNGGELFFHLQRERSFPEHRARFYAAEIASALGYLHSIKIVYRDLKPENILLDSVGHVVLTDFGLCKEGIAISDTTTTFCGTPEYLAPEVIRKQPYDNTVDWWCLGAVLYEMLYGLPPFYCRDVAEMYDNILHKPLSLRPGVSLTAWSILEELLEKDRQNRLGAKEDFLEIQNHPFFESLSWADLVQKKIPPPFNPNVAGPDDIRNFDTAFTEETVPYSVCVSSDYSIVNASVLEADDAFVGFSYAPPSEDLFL

Src(1-530) (h) (human) = Src(1-530) (h) (human) (UniProt P12931)
WNK2 (h) (human) = WNK2 (h) (human) (UniProt Q9Y3S1)
Yes (h) (human) = Yes (h) (human) (UniProt P07947)

Abl (M351T) (h) (human), sequence (P00519 27-1130 M351T limits assumed): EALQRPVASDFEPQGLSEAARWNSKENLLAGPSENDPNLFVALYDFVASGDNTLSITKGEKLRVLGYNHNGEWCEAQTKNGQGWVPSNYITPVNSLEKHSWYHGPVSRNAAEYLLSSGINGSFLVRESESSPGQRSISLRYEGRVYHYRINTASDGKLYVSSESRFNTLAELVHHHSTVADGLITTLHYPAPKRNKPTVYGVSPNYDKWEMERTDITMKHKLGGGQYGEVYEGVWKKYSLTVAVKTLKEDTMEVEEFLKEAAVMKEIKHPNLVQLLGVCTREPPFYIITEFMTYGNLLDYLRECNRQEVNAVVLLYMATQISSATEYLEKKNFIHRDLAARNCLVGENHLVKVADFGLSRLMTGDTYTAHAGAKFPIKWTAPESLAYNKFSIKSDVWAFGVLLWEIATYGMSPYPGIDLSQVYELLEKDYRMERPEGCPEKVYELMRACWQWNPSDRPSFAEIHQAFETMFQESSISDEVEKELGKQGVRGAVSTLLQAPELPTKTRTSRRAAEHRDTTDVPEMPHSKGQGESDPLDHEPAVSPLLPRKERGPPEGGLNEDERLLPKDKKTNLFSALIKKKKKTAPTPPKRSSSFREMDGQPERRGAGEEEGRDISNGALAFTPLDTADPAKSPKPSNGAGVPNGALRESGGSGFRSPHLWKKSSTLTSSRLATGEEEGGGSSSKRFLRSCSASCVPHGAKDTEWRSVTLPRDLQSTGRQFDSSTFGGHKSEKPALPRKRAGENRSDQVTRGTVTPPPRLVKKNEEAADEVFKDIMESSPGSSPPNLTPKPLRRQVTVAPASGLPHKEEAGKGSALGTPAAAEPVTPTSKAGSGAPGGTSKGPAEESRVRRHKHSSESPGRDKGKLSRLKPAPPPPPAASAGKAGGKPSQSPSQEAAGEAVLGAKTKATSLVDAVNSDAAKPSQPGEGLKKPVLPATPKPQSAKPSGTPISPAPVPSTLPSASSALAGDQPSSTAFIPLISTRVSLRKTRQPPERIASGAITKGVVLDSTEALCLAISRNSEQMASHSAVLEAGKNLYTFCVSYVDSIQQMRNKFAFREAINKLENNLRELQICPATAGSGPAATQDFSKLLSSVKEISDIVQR

MMI-0300 (peptide)
% activity at 100 µM (Abl (M351T) (h) (human)): 90% | % activity at 100 µM (BTK(R28H) (h) (human)): 74% | % activity at 100 µM (CDK2/cyclinA (h) (human)): 86% | % activity at 100 µM (CHK1 (h) (human)): 91% | % activity at 100 µM (EphA2 (h) (human)): 31% | % activity at 100 µM (EphB2 (h) (human)): 18% | % activity at 100 µM (FGFR4 (h) (human)): 28% | % activity at 100 µM (Fer (h) (human)): 130% | % activity at 100 µM (Fgr (h) (human)): 60% | % activity at 100 µM [1]: 79% | % activity at 100 µM [2]: 243% | % activity at 100 µM (MAPK2 (h) (human)): 98% | % activity at 100 µM (MST3 (h) (human)): 45% | % activity at 100 µM (Met(D1246N) (h) (human)): 82% | % activity at 100 µM (NEK11 (h) (human)): 53% | % activity at 100 µM [3]: 82% | % activity at 100 µM (PKCα (h) (human)): 89% | % activity at 100 µM (PKCβII (h) (human)): 82% | % activity at 100 µM (PKCτ (h) (human)): 68% | % activity at 100 µM (ROCK-I (h) (human)): 79% | % activity at 100 µM (Rsk1 (h) (human)): 46% | % activity at 100 µM (SAPK2a (h) (human)): 90% | % activity at 100 µM (SGK3 (h) (human)): 10% | % activity at 100 µM (Src(1-530) (h) (human)): 23% | % activity at 100 µM (WNK2 (h) (human)): 64% | % activity at 100 µM (Yes (h) (human)): 67%
